According to paper PMC6555533:

System: MBP-p33C (C-terminal soluble portion of p33 replication protein) (Tomato bushy stunt virus)
Experiment: biotin-RNA pull-down, anti-p33 immunoblot
Conditions: EMSA: 10 mM HEPES pH 7.4, 50 mM NaCl, 1 mM DTT, 1 mM EDTA, 5% glycerol, 2.5 mM MgCl2, 0.1 ug tRNA, 2 U RNase inhibitor, 10 ul, 0.1 pmol RNA (EMSA temperature …)

For RII(+), the binding signal (% of MBP control) was 50.
